To fix the notation:
B1: Ras GTPase-activating protein 1, residues 281 to 341; numbered along this chain, P20936 (parent)
chain: RRRVRAILPYTKVPDTDEISFLKGDMFIVHNELEDGWMWVTNLRTDEQGLIVEDLVEEVGR

± gives the uncertainty stated by the source.

Results on 44 variants are retold here after the Human Domainome abundance scans (Beltran et al. 2025).

This data set covers variants of B1. As to the kind of experiment: abundance fitness (aPCA) (normalised: wild type 0, dead -1); higher = more abundant; growth selection in yeast, the domain comes from the species named. The following applies: Homo sapiens.
In the case of RRRVRAILPFTKVPDTDEISFLKGDMFIVHNELEDGWMWVTNLRTDEQGLIVEDLVEEVGR [Y10F], the abundance fitness was -0.577 ± 0.042. The same measure for RRRVRAILPYTKVPDTDEISFLKGDMFIVHNELEDGWMWVTNLPTDEQGLIVEDLVEEVGR [R44P]: -0.9 ± 0.1; for RRRVRAILPYTKVPDTDEISFLKGDMFIVHNELEDGWMWVTNLKTDEQGLIVEDLVEEVGR [R44K]: -0.648 ± 0.076. Consider RRRVRAILPYTKVPDTDEISFGKGDMFIVHNELEDGWMWVTNLRTDEQGLIVEDLVEEVGR [L22G], for which the abundance fitness was -0.229 ± 0.034. Turning to RRRPRAILPYTKVPDTDEISFLKGDMFIVHNELEDGWMWVTNLRTDEQGLIVEDLVEEVGR [V4P], the abundance fitness is -0.903 ± 0.045.

With RRRRRAILPYTKVPDTDEISFLKGDMFIVHNELEDGWMWVTNLRTDEQGLIVEDLVEEVGR [V4R], the abundance fitness is -0.631 ± 0.025. The same measure for RRRVRAILPYTKVPDTDEISFLKGDMFIVHNELEDGWMWVTNLRTDEQGLIVEDLVELVGR [E58L]: -0.348 ± 0.033; for RRRVRAILPYTKVPDTDEISFLKGDMFIVHNELEDGWMWVTNLRTDEQGLIVEDLVEMVGR [E58M]: -0.326 ± 0.061. The same measure for RRRVRAILPYTKVPDTDEISFLKGDMFIVHNELERGWMWVTNLRTDEQGLIVEDLVEEVGR [D35R]: -0.035 ± 0.03; for RRRVRAILPYTKVPDTDEISFLKGDMFIVHNELEEGWMWVTNLRTDEQGLIVEDLVEEVGR [D35E]: -0.047 ± 0.062. The same measure for RRRVRAILPYTKVPDTDEISFLKGDMFIVHNELEAGWMWVTNLRTDEQGLIVEDLVEEVGR [D35A]: -0.024 ± 0.039; for RRRVRAILPYTKVKDTDEISFLKGDMFIVHNELEDGWMWVTNLRTDEQGLIVEDLVEEVGR [P14K]: -0.011 ± 0.061.

For RRRVRAILPYTKVTDTDEISFLKGDMFIVHNELEDGWMWVTNLRTDEQGLIVEDLVEEVGR [P14T], the abundance fitness was -0.076 ± 0.034. The same measure for RRRVRAILPYTKVPDTDEISFLKGDMFIVHNELEDGWMWVTNLRWDEQGLIVEDLVEEVGR [T45W]: -0.876 ± 0.1; for RRRVRAILPYTKVPDTDEISFLKGDMFIVHNELEDGWMWVTNLRDDEQGLIVEDLVEEVGR [T45D]: -0.762 ± 0.041. As for RRRVRAILPYTKVPDTDEISFLKGDMFIVHNELEDGWMWVTNLRVDEQGLIVEDLVEEVGR [T45V], the abundance fitness was -0.807 ± 0.043.

As for RRRVRAILPYTKVPDTDEISFLKGDAFIVHNELEDGWMWVTNLRTDEQGLIVEDLVEEVGR [M26A], the abundance fitness was -0.177 ± 0.033. For RRRVRAILPYTKVPDTDEISFLKGDMFIVHNPLEDGWMWVTNLRTDEQGLIVEDLVEEVGR [E32P], the abundance fitness was -0.35 ± 0.044. The same measure for RRRVRAILPYTKVPDTDEISFLKGDMFIVHNMLEDGWMWVTNLRTDEQGLIVEDLVEEVGR [E32M]: 0.017 ± 0.053; for RRRVRAILPYTKVPDTDEISFLKGDMFIVHNELEDGWMWVTNLRTDEQGLIVEDLVEEGGR [V59G]: -0.176 ± 0.029; for RRRVRAILPYTKVPDTDEISFLKGDMFIVHNELEDGWMWVTNLRTDEQGLIVEDLVEELGR [V59L]: -0.066 ± 0.027. The same measure for RRRVRAILTYTKVPDTDEISFLKGDMFIVHNELEDGWMWVTNLRTDEQGLIVEDLVEEVGR [P9T]: -0.076 ± 0.038. With RRRVRAILSYTKVPDTDEISFLKGDMFIVHNELEDGWMWVTNLRTDEQGLIVEDLVEEVGR [P9S], the abundance fitness was -0.044 ± 0.026. The same measure for RRRVRAILPYTKVPDTDEISFLKGDMFIVHNELEDGWMWVTNLRTDEQGLIVEVLVEEVGR [D54V]: -0.233 ± 0.037; for RRRVRAILPYTKVPDTDEISFLKGDMFIVHNELEDGWMWVTNLRTDEQGLIEEDLVEEVGR [V52E]: -0.123 ± 0.052. As for RRRVRAILPYTKVPDTDEISFLKGDMFIVHNELEDGWMWVTNLRTDEQGLIPEDLVEEVGR [V52P], the abundance fitness came to 0.04 ± 0.035. For the variant RRRVRAILPYTKVPDTDEISFLKGDMFIVHNELEDGWMWVTNHRTDEQGLIVEDLVEEVGR [L43H], the abundance fitness is -0.612 ± 0.047. On to RRRVRAILPYTKVPDTDEISFLKGDMFIVHNELEDGWMWVTNFRTDEQGLIVEDLVEEVGR [L43F], for which the abundance fitness was -0.425 ± 0.029. In the case of RRRVRAILPYTKVPDTDEISILKGDMFIVHNELEDGWMWVTNLRTDEQGLIVEDLVEEVGR [F21I], the abundance fitness was -0.568 ± 0.024. The same measure for RRRVRAILPYTKVPDTDEISTLKGDMFIVHNELEDGWMWVTNLRTDEQGLIVEDLVEEVGR [F21T]: -0.907 ± 0.038; for RRRVRAILPYTKVPDTDEIDFLKGDMFIVHNELEDGWMWVTNLRTDEQGLIVEDLVEEVGR [S20D]: -0.111 ± 0.029.

For the variant RRRVRAILPYTKVPDTDEISFLKGDMFIVHNELEDGWMWVTNLRTDEQGLDVEDLVEEVGR [I51D], the abundance fitness was -0.814 ± 0.049. Consider RRRVRAILPYTKVPATDEISFLKGDMFIVHNELEDGWMWVTNLRTDEQGLIVEDLVEEVGR [D15A], for which the abundance fitness was -0.129 ± 0.029. For the variant RRRVRAILPYTKVPDTDEISFLKGDMFIVHNELEDGWMWDTNLRTDEQGLIVEDLVEEVGR [V40D], the abundance fitness is -0.846 ± 0.048. Consider RRRVRAILPYTKVPDTDEISFLKGDMFIVHNELEDGWDWVTNLRTDEQGLIVEDLVEEVGR [M38D], for which the abundance fitness is -0.871 ± 0.055. The same measure for RRRVRAILPYTKVPDTDEISFLKGDMFIVHNELEDGWAWVTNLRTDEQGLIVEDLVEEVGR [M38A]: -0.396 ± 0.036.

As for YRRVRAILPYTKVPDTDEISFLKGDMFIVHNELEDGWMWVTNLRTDEQGLIVEDLVEEVGR [R1Y], the abundance fitness stood at 0.018 ± 0.042. With RRRVRAILPYTKVPDTDEISFLKGDMVIVHNELEDGWMWVTNLRTDEQGLIVEDLVEEVGR [F27V], the abundance fitness is -0.901 ± 0.045.

Consider RRRVRAILPYTKVPDTDEISFLKGDMWIVHNELEDGWMWVTNLRTDEQGLIVEDLVEEVGR [F27W], for which the abundance fitness was -0.957 ± 0.1.

For RRRVRAILPYTKVPDTDEISFLKGDMDIVHNELEDGWMWVTNLRTDEQGLIVEDLVEEVGR [F27D], the abundance fitness is -0.748 ± 0.051. In the case of RRRVRAILPYTKVPDTDEISFLKGDMFIVHNELEDGWMWVPNLRTDEQGLIVEDLVEEVGR [T41P], the abundance fitness was -0.973 ± 0.096. As to RRRVRAILPYTKVPDTDEISFLKGDMFIVHNELEDGWMWVCNLRTDEQGLIVEDLVEEVGR [T41C], the abundance fitness is -0.425 ± 0.028.

For RRRVRAILPYTKVPDTDEISFLKGDMFIVHNELEDGWMWVTNLRTGEQGLIVEDLVEEVGR [D46G], the abundance fitness was found to be 0.038 ± 0.025.

As to RRRVRAILPYTKVPDTDEISFLKGDMFIVHNELEDGWMWVTNLRTYEQGLIVEDLVEEVGR [D46Y], the abundance fitness is -0.098 ± 0.025.
